Assay results from patent US20060024807.

Legend:
[1] = biological target: T1, Known PK substrate sequence EAAEAEPAEPSSPAAEAEGA (p42/p44 MAP kinase substrate)
T1 chain: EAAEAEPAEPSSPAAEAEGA

[2] = biological target: T2, Known PK substrate sequence KKRPQRATSNVFS (myosin light chain kinase substrate)
T2 chain: KKRPQRATSNVFS

[3] = biological target: T3, Known PK substrate sequence KKALRRQETVDAL (Ca-/calmodulin-dependent PK substrate)
T3 chain: KKALRRQETVDAL

[4] = biological target: T4, Known PK substrate sequence PLARTLSVAGLPGK (Ca-/calmodulin-dependent PK substrate)
T4 chain: PLARTLSVAGLPGK

[5] = biological target: T5, Known PK substrate sequence RRKDLHDDEEDEAMSITA (casein kinase I substrate)
T5 chain: RRKDLHDDEEDEAMSITA

[6] = biological target: T6, Known PK substrate sequence RKISASEFDRPLR (cGMP-dependent protein kinase substrate)
T6 chain: RKISASEFDRPLR

[7] = biological target: T7, Known PK substrate sequence KKKKEEIYFFF (csk tyrosine kinase substrate)
T7 chain: KKKKEEIYFFF

[8] = biological target: T8, Known PK substrate sequence LRRASLG (cAMP-dependent protein kinase substrate)
T8 chain: LRRASLG

[9] = biological target: T9, Known PK substrate sequence KKRFSFKKSFKLSGFSFK (protein kinase C substrate)
T9 chain: KKRFSFKKSFKLSGFSFK

[10] = biological target: T10, Known PK substrate sequence PKTPKKAKKL (p34 cdc-kinase substrate)
T10 chain: PKTPKKAKKL

[11] = biological target: T11, Known PK substrate sequence SGQLIDSMANSFVGTRS (raf-1 kinase substrate)
T11 chain: SGQLIDSMANSFVGTRS

[12] = biological target: T12, Known PK substrate sequence KKKLPATGDYMNMSPVGD (insulin receptor tyrosine kinase substrate)
T12 chain: KKKLPATGDYMNMSPVGD

[13] = biological target: T13, Known PK substrate sequence EAIYAAPFAKKK (abl tyrosine kinase substrate)
T13 chain: EAIYAAPFAKKK

[14] = biological target: T14, Known PK substrate sequence YIYGSFK (c-src tyrosine kinase substrate)
T14 chain: YIYGSFK

[15] = biological target: T15, Known PK substrate sequence LSSLRASTSKSGGQK (S6 kinase substrate)
T15 chain: LSSLRASTSKSGGQK

[16] = biological target: T16, Known PK substrate sequence LMECRNSPVAKT (p42/p44 MAP kinase substrate)
T16 chain: LMECRNSPVAKT

[17] = biological target: T17, Known PK substrate sequence APRTPGGRR (p42/p44 MAP kinase substrate)
T17 chain: APRTPGGRR

[18] = biological target: T18, Known PK substrate sequence Ac-SPGRRRRK (cdc2-kinase substrate)
T18 chain: SPGRRRRK

[19] = biological target: T19, Known PK substrate sequence QKRPSQRSK (protein kinase C substrate)
T19 chain: QKRPSQRSK

[20] = biological target: T20, Known PK substrate sequence RRRDDDSDDD (casein kinase II substrate)
T20 chain: RRRDDDSDDD

B1: MLSK-1 (Murine Lymph node Stromal cell Kinase 1) (protein)
chain: MESVALLQRPSQAPSASALASESARPLADGLIKSPKPLMKKQAVKRHHHKHNLRHRYEFLETLGKGTYGKVKKARESSGRLVAIKSIRKDKIKDEQDLLHIRREIEIMSSLNHPHIIAIHEVFENSSKIVIVMEYASRGDLYDYISERPRLSERDARHFFRQIVSALHYCHQNGIVHRDLKLENILLDANGNIKIADFGLSNLYHKGKFLQTFCGSPLYASPEIVNGKPYVGPEVDSWSLGVLLYILVHGTMPFDGQDHKTLVKQISNGAYREPPKPSDACGLIRWLLMVNPTRRATLEDVASHWWVNWGYTTGVGEQEALREGGHPSGDFGRASMADWLRRSSRPLLENGAKVCSFFKQHVPGGGSTVPGLERQHSLKKSRKENDMAQNLQGDPAEDTSSRPGKSSLKLPKGILKKKSSTSSGEVQEDPQELRPVPDTPGQPVPAVSLLPRKGILKKSRQRESGYYSSPEPSESGELLDASDVFVSGDPVEQKSPQASGLLLHRKGILKLNGKFSRTALEGTTPSTFGSLDQLASSHPAARPSRPSGAVSEDSILSSESFDQLDLPERLPETPLRGCVSVDNLRGLEQPPSEGLKRWWQESLGDSCFSLTDCQEVTAAYRQALGICSKLS
Phosphorylation by MLSK-1 (% of max.) [1]: 0 % of max. | Phosphorylation by MLSK-1 (% of max.) [2]: 72 % of max. | Phosphorylation by MLSK-1 (% of max.) [3]: 20.9 % of max. | Phosphorylation by MLSK-1 (% of max.) [4]: 10.3 % of max. | Phosphorylation by MLSK-1 (% of max.) [5]: 14.1 % of max. | Phosphorylation by MLSK-1 (% of max.) [6]: 62.2 % of max. | Phosphorylation by MLSK-1 (% of max.) [7]: 82.1 % of max. | Phosphorylation by MLSK-1 (% of max.) [8]: 65.9 % of max. | Phosphorylation by MLSK-1 (% of max.) [9]: 100 % of max. | Phosphorylation by MLSK-1 (% of max.) [10]: 82 % of max. | Phosphorylation by MLSK-1 (% of max.) [11]: 43.1 % of max. | Phosphorylation by MLSK-1 (% of max.) [12]: 33.7 % of max. | Phosphorylation by MLSK-1 (% of max.) [13]: 69.3 % of max. | Phosphorylation by MLSK-1 (% of max.) [14]: 66.6 % of max. | Phosphorylation by MLSK-1 (% of max.) [15]: 66.6 % of max. | Phosphorylation by MLSK-1 (% of max.) [16]: 3.8 % of max. | Phosphorylation by MLSK-1 (% of max.) [17]: 88.6 % of max. | Phosphorylation by MLSK-1 (% of max.) [18]: 94.8 % of max. | Phosphorylation by MLSK-1 (% of max.) [19]: 75 % of max. | Phosphorylation by MLSK-1 (% of max.) [20]: 17.6 % of max.
